Assay results as given in patent US20170015742A1 (published 2017).
Changes are numbered by the printed parent chain.

T1: Cynomolgus monkey PDGF-BB (cynomolgus monkey, UniProt P01127 82-190 (human entry), limits assumed)
T1 chain: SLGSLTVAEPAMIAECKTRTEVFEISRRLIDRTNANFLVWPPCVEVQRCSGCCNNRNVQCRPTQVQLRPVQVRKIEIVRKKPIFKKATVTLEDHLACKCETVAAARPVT

B1: CL-33578-IgG (antibody, V domains shown)
VH: EVTLRESGPALVKPTQTLTLTCTFSGFSLSTYGMGVGWIRQPPGKALEWLANIWWDDDKYYNPSLKNRLTISKDTSKNQVVLTMTNMDPVDTATYYCARIQSGWTNYEFDYWGQGTMVTVSS
VL: EIVLTQSPGTLSLSPGERATLSCERSSGDIGDSYVSWYQQKPGQAPRLVIYADDQRPSGIPDRFSGSGSGTDFTLTISRLEPEDFAVYYCQSYDINIDIVFGGGTKVEIK
B2: CL-33675-IgG (antibody, V domains shown)
VH: B1 VH with Q101E, G103S, W104G, T105P, N106K, E108S
VL: B1 VL with E24R, R25A, D29S, G31W, D32Y, Y34F, V49L, P57A, D94G, I99V
B3: CL-33587-IgG (antibody, V domains shown)
VH: B1 VH with G103M, N106R, E108D
VL: B1 VL
B4: CL-33701-IgG (antibody, V domains shown)
VH: B1 VH with Q101E, G103L, W104G, N106S, E108S
VL: B1 VL with G31W, S33Y, I95L, N96F, I99V, V100T
B5: CL-33759-IgG (antibody, V domains shown)
VH: B1 VH with Q101E, G103V, N106R, E108D
VL: B1 VL with G31W, D32Q, S33T, A52G, P57A, N96D, V100T
B6: CL-33820-IgG (antibody, V domains shown)
VH: B1 VH with Q101E, G103S, W104F, N106S, E108S
VL: B1 VL with E24K, D29S, G31Y, S33T, A52S, I95L, N96T, V100T
B7: CL-33805-IgG (antibody, V domains shown)
VH: B1 VH with Q101E, G103H, T105W, N106S, E108A
VL: B1 VL with D29S, I30N, G31Y, S33T, V49L, Q55L, P57A, D94G, N96E, I97T
B8: CL-33803-IgG (antibody, V domains shown)
VH: B1 VH with Q101E, G103L, W104P, N106S, E108S
VL: B1 VL with G31W, S33T, V49L, N96I
B9: CL-33699-IgG (antibody, V domains shown)
VH: B1 VH with V36I, Q101E, G103M, W104G, T105P, N106K, E108A
VL: B1 VL with E24R, R25A, D29S, G31W, D32Y, Y34F, V49L, P57A, D94G, I99V
B10: CL-33706-IgG (antibody, V domains shown)
VH: B1 VH with Q101E, S102T, G103M, W104G, T105P, N106K, E108S
VL: B1 VL with E24R, R25A, D29S, G31W, D32Y, Y34F, V49L, P57A, D94G, I99V
B11: CL-33855-IgG (antibody, V domains shown)
VH: B1 VH with Q101E, S102T, G103F, W104G, T105P, N106K, E108S
VL: B1 VL with E24R, R25A, D29S, G31W, D32Y, Y34F, V49L, P57A, D94G, I99V
B12: CL-33683-IgG (antibody, V domains shown)
VH: B1 VH with Q101E, S102T, G103I, W104G, T105P, N106K, E108S
VL: B1 VL with E24R, R25A, D29S, G31W, D32Y, Y34F, V49L, P57A, D94G, I99V
B13: CL-33737-IgG (antibody, V domains shown)
VH: B1 VH with Q41K, Q101E, G103S, W104G, T105P, N106K, E108S
VL: B1 VL with E24R, R25A, D29S, G31W, D32Y, Y34F, V49L, P57A, D94G, I99V
B14: CL-33845-IgG (antibody, V domains shown)
VH: B1 VH with Q101V, G103D, N106T, E108S
VL: B1 VL with E24R, R25A, D29S, G31W, D32Y, Y34F, V49L, P57A, D94G, I99V
B15: CL-33682-IgG (antibody, V domains shown)
VH: B1 VH with Q101E, G103S, N106S, E108S
VL: B1 VL with D29S, I30N, G31Y, S33T, V49L, Q55L, P57A, D94G, I99V
B16: CL-33811-IgG (antibody, V domains shown)
VH: B1 VH with Q101E, G103S, N106T, E108S
VL: B1 VL with D29S, G31W, D32H, V49L, A52S, P57A, S58T, D94G, N96Y, I99V
B17: CL-33731-IgG (antibody, V domains shown)
VH: B1 VH with Q101E, G103I, W104P, N106S, E108S
VL: B1 VL with D29S, G31W, D32Q, P57A, S58T, N96D, I99V
B18: CL-33812-IgG (antibody, V domains shown)
VH: B1 VH with Q101E, G103N, W104P, T105W, N106K, E108S
VL: B1 VL with G31W, D32Q, A52S, P57A, D94G, I99V
B19: CL-33767-IgG (antibody, V domains shown)
VH: B1 VH with Q101E, G103I, W104G, T105P, N106K, E108S
VL: B1 VL with E24R, R25A, D29S, G31W, D32Y, Y34F, V49L, P57A, D94G, I99V
B20: chBEW-10H2 (antibody, human IgG1, kappa, L234A L235A, V domains shown)
VH: QIQLVQSGPELKKPGESVKISCKASGYSFTNFGLYWVKQAPGQGLQYMGWIDTETGKPTYADDFRGRFVFFLETSASTAYLQINNLKNEDMATYFCARVYGYPSWYFDFWGPGTMVTVSS
VL: DIQMTQSPASLSTSLEEIVTITCQASQDIDNYLSWYQQKPGKSPQLLIHSATSLADGVPSRFSGSRSGTQFSLKIHRLQVEDTGIYYCLQHFFPPWTFGGGTKLELKR
notes: also called chBEW-10H2-B9

Target: T2, Human PDGF-BB (human, UniProt P01127 82-190)
Assay: cell-based or functional assay

hPDGF-BB NIH-3T3 Proliferation IC50 | Binder
33 pM | B1
40 pM | B2
46 pM | B3
56 pM | B4
293 pM | B5
17 pM | B6
39 pM | B7
24 pM | B8
33 pM | B9
35 pM | B10
37 pM | B11
29 pM | B12
30 pM | B13
171 pM | B14
30 pM | B15
32 pM | B16
36 pM | B17
33 pM | B18
90 pM | B19

Target: T1, Cynomolgus monkey PDGF-BB
Assay: cell-based or functional assay

cynoPDGF-BB NIH-3T3 Proliferation IC50 | Binder
23 pM | B1
24 pM | B2
29 pM | B3
12 pM | B4
180 pM | B5
13 pM | B6
18 pM | B7
18 pM | B8
16 pM | B9
19 pM | B10
19 pM | B11
28 pM | B12
24 pM | B13
73 pM | B14
19 pM | B15
12 pM | B16
23 pM | B17
28 pM | B18
42 pM | B19

Target: T2, Human PDGF-BB
Assay: Biacore SPR, antibody captured by anti-human Fc, PDGF-BB as analyte
Experimental: Unreacted moieties on the biosensor surface were blocked with ethanolamine. For kinetic analysis, rate equations derived from the 1:1 Langmuir binding model were fitted simultaneously to multiple antigen injections (using global fit analysis) with the use of Scrubber 2 (BioLogic Software), Biacore Biaevaluation 4.0.1 software or Biacore T100 Evaluation software. Purified antibodies or DVD-Ig molecules were diluted in running buffer for capture across goat anti-human Fc reaction surfaces. Antibodies or DVD-Ig molecules to be captured as a ligand (1 μg/ml) were injected over reaction matrices at a flow rate of 10 μl/minute. During the assay, all measurements were referenced against the capture surface alone (i.e., with no captured antibody or DVD-Ig molecule). […] The equilibrium dissociation constant KD (M) of the reaction between antibodies and the target antigen was then calculated from the kinetic rate constants by the following formula: KD=Koff/Kₒₙ. Binding was recorded as a function of time and kinetic rate constants were calculated. In this assay, on-rates as fast as 10⁶M⁻¹s⁻¹ and off-rates as slow as 10⁻⁶ s⁻¹ could be measured. […]

Kd | kon | Binder
≤ 0.3 pM | ≥ 9e+07 M⁻¹ s⁻¹ | B1
0.61 pM | 3.6e+07 M⁻¹ s⁻¹ | B2
≤ 0.22 pM | ≥ 9e+07 M⁻¹ s⁻¹ | B3
0.24 pM | 7.3e+07 M⁻¹ s⁻¹ | B4
≤ 0.16 pM | ≥ 9.8e+07 M⁻¹ s⁻¹ | B6
0.21 pM | 6.8e+07 M⁻¹ s⁻¹ | B7
≤ 0.16 pM | ≥ 9e+07 M⁻¹ s⁻¹ | B8
0.69 pM | 1.8e+07 M⁻¹ s⁻¹ | B10
≤ 0.05 pM | 2e+07 M⁻¹ s⁻¹ | B11
0.44 pM | 1.9e+07 M⁻¹ s⁻¹ | B12
≤ 0.24 pM | ≥ 9e+07 M⁻¹ s⁻¹ | B15
0.45 pM | 2.7e+07 M⁻¹ s⁻¹ | B16
0.2 pM | 8.1e+07 M⁻¹ s⁻¹ | B17
0.3 pM | 6.3e+07 M⁻¹ s⁻¹ | B18

Target: T3, Human VEGF-A 165 (human, UniProt P15692 207-395)
T3 construct: Recombinant human VEGF165; also called huVEGF-A165; hVEGF165
T3 sequence (P15692 other isoform, or with tags, fused parts or gaps): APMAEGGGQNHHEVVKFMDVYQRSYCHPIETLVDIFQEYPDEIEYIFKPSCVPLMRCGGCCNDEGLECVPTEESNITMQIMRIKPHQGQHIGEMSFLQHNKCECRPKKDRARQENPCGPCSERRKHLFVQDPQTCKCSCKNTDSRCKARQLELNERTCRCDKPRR
Assay: SPR (Biacore), antibody captured by anti-human Fc, hVEGF165 as analyte
Experimental: For example, approximately 9000 RU of goat anti-human Fc specific polyclonal antibody (Thermo Fisher Scientific Inc., Rockford, Ill.) diluted in 10 mM sodium acetate (pH 4.5) is directly immobilized across a CM5 research grade biosensor chip using a standard amine coupling kit according to manufacturer's instructions and procedures at 25 μg/ml. Unreacted moieties on the biosensor surface were blocked with ethanolamine. For kinetic analysis, rate equations derived from the 1:1 Langmuir binding model were fitted simultaneously to multiple antigen injections (using global fit analysis) with the use of Scrubber 2 (BioLogic Software), Biacore Biaevaluation 4.0.1 software or Biacore T100 Evaluation software. Purified antibodies or DVD-Ig molecules were diluted in running buffer for capture across goat anti-human Fc reaction surfaces. Antibodies or DVD-Ig molecules to be captured as a ligand (1 μg/ml) were injected over reaction matrices at a flow rate of 10 μl/minute. During the assay, all measurements were referenced against the capture surface alone (i.e., with no captured antibody or DVD-Ig molecule). […] The equilibrium dissociation constant KD (M) of the reaction between antibodies and the target antigen was then calculated from the kinetic rate constants by the following formula: KD=Koff/Kₒₙ. Binding was recorded as a function of time and kinetic rate constants were calculated.

Kd | kon | Binder
13 pM | 2.8e+07 M⁻¹ s⁻¹ | B20

Target: T2, Human PDGF-BB
Assay: competition ELISA: antibody pre-incubated with hPDGF-BB-biotin, binding to coated hPDGF-Rβ-Fc
Experimental: Plates were then washed four times with wash buffer (TBS, 0.05% Tween-20) and blocked with Superblock blocking buffer (Thermo Scientific, cat#37535). During the blocking step, supernatants, antibodies, benchmark compounds or DVD-Ig were diluted in assay diluent (10% Superblock containing 0.05% surfactamps) and an eight point titration of each sample molecule was performed. […] Following incubation, plates were washed four times with wash buffer. Detection reagent Streptavidin-polyHRP-40 (Fitzgerald, cat#65r-s104phrp) was diluted in assay diluent and added to plates (50 μL) for 45 minutes at 25° C. with shaking. Plates were washed four times with wash buffer and developed with the addition of Enhanced K-blue TMB substrate (Neogen, cat#308177). The reaction was stopped with 2N sulfuric acid (VWR, cat# BDH3500-1) and the absorbance was read at 450 nm-570 nm. […] Data was analyzed using Softmax Pro 4.8 software and IC₅₀ values calculated using a sigmoidal dose response (variable slope) fit in GraphPad Prism 5.
Potency was evaluated in both cell-based and ELISA formats.

IC50 | Binder
49 pM | B1
54 pM | B2
< 100 pM | B3
59 pM | B4
1270 pM | B5
66 pM | B6
63 pM | B7
44 pM | B8
72 pM | B9
81 pM | B10
162 pM | B11
126 pM | B12
92 pM | B13
409 pM | B14
69 pM | B15
100 pM | B16
68 pM | B17
43 pM | B18
114 pM | B19
